# Laboratory results taken from US6740739B1, “Substitutional variants of APO-2 ligand” (Genentech, Inc., priority 1998, dated 2004).
# B1: Apo-2L: purified soluble His10-tagged human Apo-2 ligand, residues 114-281, from baculovirus-infected Sf9 cells (Example 3); used in Examples 4-14 (protein)
# chain: MGHHHHHHHHHHSSGHIDDDDKHMVRERGPQRVAAHITGTRGRSNTLSSPNSKNEKALGRKINSWESSRSGHSFLSNLHLRNGELVIHEKGFYYIYSQTYFRFQEEIKENTKNDKQMVQYIYKYTSYPDPILLMKSARNSCWSKDAEYGLYSIYQGGIFELKENDRIFVSVTNEHLIDMDHEASFFGAFLVG
# How the values were obtained:
# [1] = tested on: HCT116 human colon carcinoma cells; test: Tumor volume in nude mice, osmotic mini-pump infusion; format: in vivo; conditions: E. coli-expressed Apo-2 ligand (aa 91-281/92-281) 10 mg/kg each day by intraperitoneal osmotic mini-pump; over 3 days; vehicle no change; FIG. 15
# Description: In the experiment, the nude mice were injected subcutaneously with HCT116 human colon carcinoma cells (ATCC CCL 247) (1×10^6 cells) on each side of the animal. The tumors were then allowed to grow to reach approximately 1 cm diameter (approximately 10 days). On Day 0, the tumor volume was measured with calipers. Volume was calculated as π/6×ab^2, where a=length and b=width. Then osmotic mini-pumps (available from Alza Corp., Model 1003) were implanted intraperitoncally into each animal. The mini-pumps were loaded with either (1) control vehicle (20 mM Tris pH 7.5, 8% Trehalose. 0.01% Tween-20) or (2) Apo-2 ligand. Five animals in each group received either the control vehicle or Apo-2 ligand. The mini-pumps were calibrated to deliver each day 10 mg/kg Apo-2 ligand (10 mg/ml×2 μl/hour) or 2 μl/hour control vehicle.
# On Day 3, the tumor volume was again measured, and the animals were sacrificed. […] There was no change in tumor volume in the vehicle group, but a marked reduction in tumor size occurred in mice infused with the Apo-2L. The treatment with the Apo-2L shrunk the tumors by about 50% over 3 days.
# [2] = tested on: A549; format: cell-based, human
# Description: (§1) The following human tumor cell lines were assayed: A549 (lung carcinoma, ATCC CCL 185); HCT116 (colon carcinoma, ATCC CCL 247); SW480 (colon adenocarcinoma, ATCC CCL 228); MDA231 (breast adenocarcinoma, ATCC HTB 26); HeLa (cervical carcinoma, ATCC CCL 22); ME-180 (cervical carcinoma, ATCC HTB 33); T24 (bladder carcinoma. ATCC HTB 4); SK-N-AS (neuroblastoma, White et al., Proc. Natl. Acad. Sci., 92:5520-5524 (1995)). The cells were plated at 2.5×10^5 cells/ml in 96 well plates and incubated overnight. The cells were cultured in the presence of 2-fold dilutions of Apo-2 ligand (ranging from 100 ng/ml to 0.01 ng/ml). In some of the cultures, a chemotherapeuticagent was also added for 24 hours-cyclohexamide (“CHX”) (50 μg/ml; Sigma Chemicals), Doxorubicin (10-100 μg/ml; Pharmacia), or 5-FU (6 mg/ml; Roche). After 24 hours of incubation, the cells were stained with 0.5% crystal-violetin 20% methanol. Cell viability was determined by eluting the dye from the stained cells with 0.1M sodium citrate (0.1M citric acid in 50% methanol), and measuring absorbance at 540 nm.
# [3] = tested on: MDA231; format: cell-based, human
# Description: as §1
# [4] = tested on: SW480; format: cell-based, human
# Description: as §1
# [5] = tested on: HCT116; format: cell-based, human
# Description: as §1
# [6] = tested on: U-937; test: Apoptosis by FACS, non-lymphoid tumor cell lines; format: cell-based, human; conditions: Apo-2 ligand 3 μg/ml, 24 hours, control 3.6
# Description: (§2) The effects of the Apo-2 ligand on the 9D cells, as well as on Raji cells (human Burkitt's lymphoma B cell line, ATCC CCL 86) and Jurkat cells (human acute T cell leukemia cell line, ATCC TIB 152) were further analyzed by FACS. The FACS analysis was conducted, using established criteria for apoptotic cell death, namely, the relation of fluorescence staining of the cells with two markers: (a) propidium iodide (“PI”) dye, which stains apoptotic but not live cells, and (b) a fluorescent derivative of the protein, annexin V, which binds to the exposed phosphatidylserine found on the surface of apoptotic cells, but not on live cells [Darzynkiewicz et al., Methods in Cell Biol., 41:15-38 (1994); Fadok et al., J. Immunol., 148:2207-2216 (1992); Koopman et al., Blood, 84:1415-1420 (1994)].
# (§3) The 9D cells (FIG. 2B), Raji cells (FIG. 2C), and Jurkat cells (FIG. 2D) were incubated (1×10^6 cells/well) for 24 hours with a media control (left panels), Apo-2 ligand (3 μg/ml, prepared as described in Example 3) (center panels), or anti-Apo-1 ligand antibody, CH11 (1 μg/ml) (right panels). The cells were then washed, stained with PI and with fluorescein thiocyanate (FITC)-conjugatedannexin V (purchased from Brand Applications) and analyzed by flow cytometry. Cells negative for both PI and annexin V staining (quadrant 3) represent live cells; PI-negative, annexin V-positive staining cells (quadrant 4) represent early apoptotic cells; PI-positive, annexin V-positive staining cells (quadrant 2) represent primarily cells in late stages of apoptosis.
# (§4) The effect of Apo-2 ligand on human non-lymphoid tumor cell lines was examined using the following cell lines: HeLa (derived from human cervical carcinoma, ATCC CCL 22); ME-180 (derived from human cervical carcinoma, ATCC HTB 33); MCF7 (derived from human breast carcinoma, ATCC HTB 22); U-937 (derived from human hystiocytic lymphoma, ATCC CRL 1593); A549 (derived from human lung carcinoma, ATCC CCL 185); and 293 (derived from an adenovirus-transformed human embryonic kidney cells, ATCC CCL 1573).
# (§5) In the assay, 1×10^6 cells of each cell line were incubated for 24 hours with a media control, Apo-2 ligand (3 μg/ml, prepared as described in Example 3), or anti-Apo-1 monoclonal antibody, CH 11 (1 μg/m1). Following the incubation, apoptosis was measured by FACS analysis, as described in Example 4.
# [7] = tested on: A549; test: Apoptosis by FACS, non-lymphoid tumor cell lines; format: cell-based, human; conditions: Apo-2 ligand 3 μg/ml, 24 hours, control 16.5
# Description: as §2, §3, §4, §5
# [8] = tested on: MCF7; test: Apoptosis by FACS, non-lymphoid tumor cell lines; format: cell-based, human; conditions: Apo-2 ligand 3 μg/ml, 24 hours, control 39.9
# Description: as §2, §3, §4, §5
# [9] = tested on: ME-180; test: Apoptosis by FACS, non-lymphoid tumor cell lines; format: cell-based, human; conditions: Apo-2 ligand 3 μg/ml, 24 hours, control 8.6
# Description: as §2, §3, §4, §5
# [10] = tested on: 293; test: Apoptosis by FACS, non-lymphoid tumor cell lines; format: cell-based, human; conditions: Apo-2 ligand 3 μg/ml, 24 hours, control 12.3
# Description: as §2, §3, §4, §5
# [11] = tested on: HeLa; test: Apoptosis by FACS, non-lymphoid tumor cell lines; format: cell-based, human; conditions: Apo-2 ligand 3 μg/ml, 24 hours, control 5.3
# Description: as §2, §3, §4, §5
molecule,measurement,setting,value
B1,shrinkage of tumors (change in tumor volume),[1],about 50%
same,Apo-2L sensitivity ENHANCED BY 5-FU,[2],yes
same,Apo-2L sensitivity ENHANCED BY Dox,"[2]; A549, Doxorubicin 10-100 μg/ml, 24 hours",yes
same,Apo-2L sensitivity ENHANCED BY CHX,"[2]; A549, cyclohexamide 50 μg/ml, 24 hours",yes
same,Apo-2L SENSITIVITY,"[2]; A549 lung carcinoma, p53 WT, 24 h",++ (>70% death after 24 h with 100 ng/ml Apo-2L)
same,Apo-2L sensitivity ENHANCED BY 5-FU,[3],yes
same,Apo-2L sensitivity ENHANCED BY Dox,"[3]; MDA231, Doxorubicin 10-100 μg/ml, 24 hours",yes
same,Apo-2L sensitivity ENHANCED BY CHX,"[3]; MDA231, cyclohexamide 50 μg/ml, 24 hours",yes
same,Apo-2L SENSITIVITY,"[3]; MDA231 breast carcinoma, p53 mut, 24 h",++ (>70% death after 24 h with 100 ng/ml Apo-2L)
same,Apo-2L sensitivity ENHANCED BY 5-FU,[4],yes
same,Apo-2L sensitivity ENHANCED BY Dox,"[4]; SW480, Doxorubicin 10-100 μg/ml, 24 hours",yes
same,Apo-2L sensitivity ENHANCED BY CHX,"[4]; SW480, cyclohexamide 50 μg/ml, 24 hours",yes
same,Apo-2L SENSITIVITY,"[4]; SW480 colon carcinoma, p53 mut, 24 h",++ (>70% death after 24 h with 100 ng/ml Apo-2L)
same,Apo-2L sensitivity ENHANCED BY 5-FU,[5],yes
same,Apo-2L sensitivity ENHANCED BY Dox,"[5]; HCT116, Doxorubicin 10-100 μg/ml, 24 hours",yes
same,Apo-2L sensitivity ENHANCED BY CHX,"[5]; HCT116, cyclohexamide 50 μg/ml, 24 hours",yes
same,Apo-2L SENSITIVITY,"[5]; HCT116 colon carcinoma, p53 mut, 24 h",++ (>70% death after 24 h with 100 ng/ml Apo-2L)
same,% apoptotic cells,[6],62.3%
same,% apoptotic cells,[7],74.6%
same,% apoptotic cells,[8],47.3%
same,% apoptotic cells,[9],80.7%
same,% apoptotic cells,[10],12.2%
same,% apoptotic cells,[11],18.6%
